Measured values as given in paper PMC6823927 (Bioconjugate chemistry, 2018).
Blank lines part the entries; values can stand above or below the binder they belong to.

Target: extracellular domain of HER2 (Homo sapiens, UniProt P04626)
Assay: SPR

binding result: binds
B1: parental Fab (meditope-enabled trastuzumab Fab, Ala175) (Fab, V domains shown)
VH: not shown
VL: DIQMTQSPILLSASVGDRVTITCRASQDVNTAVAWYQQRTNGSPRLLIYSASFLYSGVPSRFSGSRSGTDFTLTISSLQPEDEADYYCQQHYTTPPTFGAGTKVEIK

binding result: binds
B2: 175Cys-Fab (meditope-enabled trastuzumab Fab with Ala175 of the heavy chain changed to cysteine) (Fab, V domains shown)
VH: not shown
VL: B1 VL
